Assay results reported in patent US20240067728A1 (BIO THERA SOLUTIONS, published 2024).
Residue numbers refer to the chain shown, from its start. Like-named read-outs stand apart in the source and are kept apart here.

Key:
[1] = molecular target: T1, PD-L1 on CHO-PD-L1 cells (Promega PD-1/PD-L1 Blockade Bioassay) (UniProt Q9NZQ7 19-290, limits assumed); assay: cell-based or functional assay
PD-L1-His antigen [2] = molecular target: T2, PD-L1-His antigen (human, UniProt Q9NZQ7 19-238); assay: SPR (Biacore), method of Example 5, 1:1 Binding fit
T2 construct: Human PD-L1 ECD with C-terminal 8xHIS tag, expressed in HEK293F; also called hPDL1-His; human PD-L1-His

[3] = molecular target: T1, PD-L1 on CHO-PD-L1 cells (Promega …); assay: cell-based or functional assay; remark: listed apart in the source
CD47-His antigen [4] = molecular target: T3, CD47-His antigen (human, UniProt Q08722 19-139); assay: SPR (Biacore), method of Example 5, 1:1 Binding fit
T3 construct: Human CD47 ECD with C-terminal 8xHIS tag, expressed in HEK293F; also called hCD47-His; human CD47-His

PD-L1-His antigen [5] = molecular target: T2, PD-L1-His antigen; assay: as above; remark: listed apart in the source
CD47-His antigen [6] = molecular target: T3, CD47-His antigen; assay: SPR (Biacore), method of Example 5, Two State Reaction fit
CD47-His antigen [7] = molecular target: T3, CD47-His antigen; assay: competitive ELISA, CD47-His coated, competitor SIRPα-Fc-Bio 0.1 µg/mL
CD47-His antigen [8] = molecular target: T3, CD47-His antigen; assay: SPR (Biacore), method of Example 5, 1:1 Binding fit; remark: listed apart in the source
[9] = molecular target: T1, PD-L1 on CHO-PD-L1 cells (Promega …); assay: cell-based or functional assay; remark: listed apart in the source
PD-L1-His antigen [10] = molecular target: T2, PD-L1-His antigen; assay: SPR (Biacore T200), PD-L1-His immobilised on chip, antibody as mobile phase, 1:1 Binding fit
[11] = molecular target: T4, human PD-L1 on PD-L1-CHO cells (human, UniProt Q9NZQ7 19-290); assay: FACS on PD-L1-CHO cells, PE-labeled anti-human Fc secondary antibody; MFI(Mean) against Con(nM)
T4 construct: whole, on cells; also called CHO cells overexpressing human PD-L1; PD-L1 expressed on the cell surface
T4 sequence (Q9NZQ7 19-290): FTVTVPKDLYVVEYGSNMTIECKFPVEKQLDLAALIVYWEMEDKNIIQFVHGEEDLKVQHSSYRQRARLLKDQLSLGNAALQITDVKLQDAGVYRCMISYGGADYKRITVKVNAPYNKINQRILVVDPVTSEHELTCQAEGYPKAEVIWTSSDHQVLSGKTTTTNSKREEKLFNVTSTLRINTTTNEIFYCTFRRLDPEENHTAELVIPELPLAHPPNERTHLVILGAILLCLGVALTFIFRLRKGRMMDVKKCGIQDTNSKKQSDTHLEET

T3 sequence (Q08722 other isoform, or with tags, fused parts or gaps limits assumed): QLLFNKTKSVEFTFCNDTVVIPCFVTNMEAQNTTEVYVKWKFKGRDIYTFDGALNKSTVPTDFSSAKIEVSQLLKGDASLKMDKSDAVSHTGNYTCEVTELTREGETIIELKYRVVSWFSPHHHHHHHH
T1 sequence (Q9NZQ7 19-290 limits assumed): as the sequence (Q9NZQ7 19-290) above
T2 sequence (Q9NZQ7 other isoform, or with tags, fused parts or gaps limits assumed): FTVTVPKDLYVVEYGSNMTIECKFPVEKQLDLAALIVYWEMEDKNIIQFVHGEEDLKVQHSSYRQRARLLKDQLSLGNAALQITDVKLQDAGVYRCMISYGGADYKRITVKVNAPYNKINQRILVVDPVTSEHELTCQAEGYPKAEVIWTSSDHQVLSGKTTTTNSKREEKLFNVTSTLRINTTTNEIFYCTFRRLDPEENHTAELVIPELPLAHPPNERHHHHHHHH

B1: L1-R2-18 (antibody, V domains shown)
VH: not shown
VL: EIVLTQSPSSVSASVGDRITITCRASQGIGSWLAWYQQKPGKAPSLLIYAASSLQSGVPSRFSGSGSGTDFTLTISSLQTEDVAVYYCQQYFSTPYTFGQGTKVDIKR
notes: Anti-PD-L1 monoclonal antibody, VH CP11-27 with light chain R2-18; also called LI-R2-18
EC50 (luciferase reporter, PD-1/PD-L1 blockade MOA assay; blocked partner: PD-1 on Jurkat-PD1 cells) [1]: 5.09 mg/L
Kd (PD-L1-His antigen [2]): 3.92 nM

B2: L1-R2-85 (antibody, V domains shown)
VH: not shown
VL: B1 VL with E1D, V3Q, L4M, V11L, I19V, T22P, S31K, W32F
notes: Anti-PD-L1 monoclonal antibody, VH CP11-27 with light chain R2-85; also called LI-R2-85
EC50 (luciferase reporter, PD-1/PD-L1 blockade MOA assay; blocked partner: PD-1 on Jurkat-PD1 cells) [1]: 5.22 mg/L
Kd (PD-L1-His antigen [2]): 11.5 nM

B3: BsAb-71 (bispecific antibody, human IgG1, kappa)
heavy 1: not shown
heavy 2: not shown
light: EIVLTQSPSSLSASVGDRVTITCLASQTIGTWLAWYQQKPGKSPQLLIYAASTLQSGVPSRFSGSGSGTDFTLTISSLQPEDVATYYCQQYYSTPRTFGQGTKVEIKRTVAAPSVFIFPPSDEQLKSGTASVVCLLNNFYPREAKVQWKVDNALQSGNSQESVTEQDSKDSTYSLSSTLTLSKADYEKHKVYACEVTHQGLSSPVTKSFNRGEC
notes: Knob-into-hole IgG1-like bispecific with common light chain; first heavy chain is the anti-PD-L1 arm, second the anti-CD47 arm; also called anti-PD-L1/CD47 bispecific antibody BsAb-71
EC50 (luciferase reporter, PD-1/PD-L1 blockade MOA assay; blocked partner: PD-1 on Jurkat-PD1 cells) [3]: 0.285 mg/L
Kd (CD47-His antigen [4]): 27.8 nM
Kd (PD-L1-His antigen [5]): 0.174 nM
Kd (CD47-His antigen [6]): 3.78 nM

B4: antibody 18 (antibody, human IgG1, kappa, V domains shown)
VH: QVQLQESGPGLVKPSETLSLTCTVSGGSLDNYYWSWIRQPPGKGLEWIGYIYYSGNTNYNPSLKSRVTISVDTSKNQFSLRLRSVTAADTAVYYCARGRGIFGYWGQGTLVTVSS
VL: DIQMTQSPSSVSASVGDRVTISCRANQAIGTWLAWYQQKPGKAPKLLIYAASTLQSGVPSRFSGSGSGTEFTLTISSLQAEDVAVYYCQQYYTTPLTFGGGTKLEIKR
notes: IgG1 complete anti-CD47 antibody
IC50 (CD47-His antigen [7]): 1.23 mg/L

B5: antibody 25 (antibody, human IgG1, kappa, V domains shown)
VH: B4 VH with R99G, G100R, Y104H
VL: B4 VL
notes: as for B4
IC50 (CD47-His antigen [7]): 1.31 mg/L

B6: L1-R2-6 (antibody, V domains shown)
VH: not shown
VL: EIVLTQSPSSVSASVGDKLTMTCQASQDIGKHLNWYQQKPGKPPKLLIYGASNLKTGVPSRFSGTGSGTDFTLTISSLQPEDFATYYCQQSYTTPYTFGQGTRLEIKR
notes: Anti-PD-L1 monoclonal antibody, VH CP11-27 with light chain R2-6; also called LI-R2-6
EC50 (luciferase reporter, PD-1/PD-L1 blockade MOA assay; blocked partner: PD-1 on Jurkat-PD1 cells) [1]: 3.92 mg/L
Kd (PD-L1-His antigen [2]): 10.3 nM

B7: 47-R2-6 (antibody, human IgG1, kappa, V domains shown)
VH: QVQLQESGPGLVKPSETLSLTCTVSGGSLDNYYWSWIRQPPGKGLEWIGYIYYSGNTNYNPSLKSRVTISVDTSKNQFSLKLSSVTAADTAVYYCARGGRFLERYWGQGTLVTVSS
VL: B6 VL
notes: Anti-CD47 monoclonal antibody, L12-6-VH with light chain R2-6
Kd (CD47-His antigen [8]): 1.11 nM

B8: antibody L12-6 (antibody, human IgG1, kappa, V domains shown)
VH: B7 VH
VL: EIVLTQSPSSLSASVGDRVTIPCRASLSIGSFLNWYQQRPGEAPKLLIFAASSLRSGVPSRFSGSGSGTDFTLTISGLQPEDFATYYCQQTYTTPYTFGQGTKVDIKR
notes: as for B4
IC50 (CD47-His antigen [7]): 0.913 mg/L

B9: antibody 3-6 (antibody, human IgG1, kappa, V domains shown)
VH: B7 VH with K81R, S83R, F101I, L102F, E103A, R104G
VL: B4 VL
notes: as for B4
IC50 (CD47-His antigen [7]): 1.12 mg/L

B10: antibody 24 (antibody, human IgG1, kappa, V domains shown)
VH: QVQLQESGPGLVKPSETLSLTCTVSGGSLDNYYWSWIRQPPGKGLEWIGRIYGDSATNYNPSLKSRVTISVDTSKNQFSLRLRSVTAADTAVYYCARGGRIFSGYWGQGTLVTVSS
VL: B4 VL
notes: as for B4
IC50 (CD47-His antigen [7]): 1.41 mg/L

B11: antibody 3 (antibody, human IgG1, kappa, V domains shown)
VH: B10 VH with N31G, D54N, A56T, S103A
VL: B4 VL
notes: as for B4
IC50 (CD47-His antigen [7]): 0.844 mg/L

B12: antibody 10 (antibody, human IgG1, kappa, V domains shown)
VH: B10 VH with G53Y, D54N, S55G, A56N, F102L, S103A
VL: B4 VL
notes: as for B4
IC50 (CD47-His antigen [7]): 1.06 mg/L

B13: antibody 16 (antibody, human IgG1, kappa, V domains shown)
VH: B10 VH with R50Y, G53Y, D54S, S55G, A56N
VL: B4 VL
notes: as for B4
IC50 (CD47-His antigen [7]): 0.975 mg/L

B14: antibody 17 (antibody, human IgG1, kappa, V domains shown)
VH: B7 VH with K81R, S83R
VL: B4 VL
notes: as for B4
IC50 (CD47-His antigen [7]): 0.795 mg/L

B15: antibody 6 (antibody, human IgG1, kappa, V domains shown)
VH: B10 VH with D30N, N31D, D54N, S55G, A56D, F102L, S103A
VL: B4 VL
notes: as for B4
IC50 (CD47-His antigen [7]): 1.1 mg/L

B16: antibody 3-3 (antibody, human IgG1, kappa, V domains shown)
VH: B10 VH with R50Y, G53Y, D54S, S55G, A56N, S103G
VL: B4 VL
notes: as for B4
IC50 (CD47-His antigen [7]): 0.939 mg/L

B17: L1-R2-4-46 (antibody, human IgG1, kappa, V domains shown)
VH: EVQLVESGGGLVQPGGSLRLSCAASGFTFSDSWIHWVRQAPGKGLEWVGWISPYGGSTYYADSLGDRFTISADTSKNTAYLQMNSLRAEDTAVYYCARRHWPGGFDYWGQGTLVTVSS
VL: EIVLTQSPSSLSASVGDRVTITCLASQTIGTWLAWYQQKPGKSPQLLIYAASTLQSGVPSRFSGSGSGTDFTLTISSLQPEDVATYYCQQYYSTPRTFGQGTKVEIKR
EC50 (luciferase reporter, PD-1/PD-L1 blockade MOA assay; blocked partner: PD-1 on Jurkat-PD1 cells) [9]: 0.224 mg/L
EC50 (read off the curve) [9]: ~1 mg/L
Kd (PD-L1-His antigen [10]): 0.282 nM
EC50 (read off the curve) [11]: ~0.6 nM

B18: L1-R2-4 (antibody, V domains shown)
VH: not shown
VL: B17 VL
notes: Anti-PD-L1 monoclonal antibody, VH CP11-27 with light chain R2-4; also called LI-R2-4
EC50 (luciferase reporter, PD-1/PD-L1 blockade MOA assay; blocked partner: PD-1 on Jurkat-PD1 cells) [1]: 2.74 mg/L
Kd (PD-L1-His antigen [2]): 1.67 nM

B19: L1-R2-4-47 (antibody, human IgG1, kappa, V domains shown)
VH: B17 VH with S63H, G65S, D66Q
VL: B17 VL
EC50 (luciferase reporter, PD-1/PD-L1 blockade MOA assay; blocked partner: PD-1 on Jurkat-PD1 cells) [9]: 0.389 mg/L
EC50 (read off the curve) [9]: ~2 mg/L
Kd (PD-L1-His antigen [10]): 0.29 nM
EC50 (read off the curve) [11]: ~0.6 nM

B20: L1-R2-4-55 (antibody, human IgG1, kappa, V domains shown)
VH: B17 VH with S63G, L64M, G65R, D66S
VL: B17 VL
EC50 (luciferase reporter, PD-1/PD-L1 blockade MOA assay; blocked partner: PD-1 on Jurkat-PD1 cells) [9]: 0.401 mg/L
EC50 (read off the curve) [9]: ~2 mg/L
Kd (PD-L1-His antigen [10]): 0.371 nM

B21: L1-R2-4-36 (antibody, human IgG1, kappa, V domains shown)
VH: B17 VH with S63D, L64F, G65R, D66H
VL: B17 VL
EC50 (luciferase reporter, PD-1/PD-L1 blockade MOA assay; blocked partner: PD-1 on Jurkat-PD1 cells) [9]: 0.148 mg/L
EC50 (read off the curve) [9]: ~1 mg/L
Kd (PD-L1-His antigen [10]): 0.341 nM
EC50 (read off the curve) [11]: ~0.6 nM

B22: L1-R2-89 (antibody, V domains shown)
VH: not shown
VL: B17 VL with E1D, V3Q, L4M, T53S, R96Y, E105D
notes: Anti-PD-L1 monoclonal antibody, VH CP11-27 with light chain R2-89; also called LI-R2-89
EC50 (luciferase reporter, PD-1/PD-L1 blockade MOA assay; blocked partner: PD-1 on Jurkat-PD1 cells) [1]: 3.78 mg/L
Kd (PD-L1-His antigen [2]): 4.08 nM

B23: L1-R2-78 (antibody, V domains shown)
VH: not shown
VL: DIQMTQSPSSFSASTGDRVTITCRASQGISSYLAWYQQKPGKAPKLLIYAASRLQSGVPSRFSGSGSGTDFTLTISSLQAEDVAVYYCQQYYSTPYTFGQGTKVDIKR
notes: Anti-PD-L1 monoclonal antibody, VH CP11-27 with light chain R2-78; also called LI-R2-78
EC50 (luciferase reporter, PD-1/PD-L1 blockade MOA assay; blocked partner: PD-1 on Jurkat-PD1 cells) [1]: 3.57 mg/L
Kd (PD-L1-His antigen [2]): 8.99 nM

B24: 47-R2-85 (antibody, human IgG1, kappa, V domains shown)
VH: B7 VH
VL: B1 VL with E1D, V3Q, L4M, V11L, I19V, T22P, S31K, W32F
notes: Anti-CD47 monoclonal antibody, L12-6-VH with light chain R2-85
Kd (CD47-His antigen [8]): 275 nM

B25: 47-R2-78 (antibody, human IgG1, kappa, V domains shown)
VH: B7 VH
VL: B23 VL
notes: Anti-CD47 monoclonal antibody, L12-6-VH with light chain R2-78
Kd (CD47-His antigen [8]): 655 nM
